Reference: US20140010832A1

Tests used:
Assay in all cases: ELISA; cytokine coated, ECM protein 0.02 to 320 nM, KD by non-linear fit
[1] = molecular target: Fibrinogen
[2] = molecular target: Fibronectin
[3] = molecular target: Osteopontin
[4] = molecular target: Tenascin C
[5] = molecular target: Vitronectin
Vitronectin, sequence (P04004 20-478): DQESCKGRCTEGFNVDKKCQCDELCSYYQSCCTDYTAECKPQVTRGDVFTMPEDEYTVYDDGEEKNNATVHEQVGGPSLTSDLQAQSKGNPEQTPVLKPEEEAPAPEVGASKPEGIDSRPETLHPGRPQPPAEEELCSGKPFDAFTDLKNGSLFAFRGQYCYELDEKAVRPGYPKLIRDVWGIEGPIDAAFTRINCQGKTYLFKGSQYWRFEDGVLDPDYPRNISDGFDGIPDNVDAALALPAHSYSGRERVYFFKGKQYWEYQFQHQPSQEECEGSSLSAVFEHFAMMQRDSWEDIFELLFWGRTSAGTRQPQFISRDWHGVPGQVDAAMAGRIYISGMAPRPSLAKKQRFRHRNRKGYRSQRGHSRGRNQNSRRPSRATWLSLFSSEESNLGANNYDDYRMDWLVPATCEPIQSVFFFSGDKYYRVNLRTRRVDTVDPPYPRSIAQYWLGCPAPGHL

Fibronectin, sequence (P02751 32-2477): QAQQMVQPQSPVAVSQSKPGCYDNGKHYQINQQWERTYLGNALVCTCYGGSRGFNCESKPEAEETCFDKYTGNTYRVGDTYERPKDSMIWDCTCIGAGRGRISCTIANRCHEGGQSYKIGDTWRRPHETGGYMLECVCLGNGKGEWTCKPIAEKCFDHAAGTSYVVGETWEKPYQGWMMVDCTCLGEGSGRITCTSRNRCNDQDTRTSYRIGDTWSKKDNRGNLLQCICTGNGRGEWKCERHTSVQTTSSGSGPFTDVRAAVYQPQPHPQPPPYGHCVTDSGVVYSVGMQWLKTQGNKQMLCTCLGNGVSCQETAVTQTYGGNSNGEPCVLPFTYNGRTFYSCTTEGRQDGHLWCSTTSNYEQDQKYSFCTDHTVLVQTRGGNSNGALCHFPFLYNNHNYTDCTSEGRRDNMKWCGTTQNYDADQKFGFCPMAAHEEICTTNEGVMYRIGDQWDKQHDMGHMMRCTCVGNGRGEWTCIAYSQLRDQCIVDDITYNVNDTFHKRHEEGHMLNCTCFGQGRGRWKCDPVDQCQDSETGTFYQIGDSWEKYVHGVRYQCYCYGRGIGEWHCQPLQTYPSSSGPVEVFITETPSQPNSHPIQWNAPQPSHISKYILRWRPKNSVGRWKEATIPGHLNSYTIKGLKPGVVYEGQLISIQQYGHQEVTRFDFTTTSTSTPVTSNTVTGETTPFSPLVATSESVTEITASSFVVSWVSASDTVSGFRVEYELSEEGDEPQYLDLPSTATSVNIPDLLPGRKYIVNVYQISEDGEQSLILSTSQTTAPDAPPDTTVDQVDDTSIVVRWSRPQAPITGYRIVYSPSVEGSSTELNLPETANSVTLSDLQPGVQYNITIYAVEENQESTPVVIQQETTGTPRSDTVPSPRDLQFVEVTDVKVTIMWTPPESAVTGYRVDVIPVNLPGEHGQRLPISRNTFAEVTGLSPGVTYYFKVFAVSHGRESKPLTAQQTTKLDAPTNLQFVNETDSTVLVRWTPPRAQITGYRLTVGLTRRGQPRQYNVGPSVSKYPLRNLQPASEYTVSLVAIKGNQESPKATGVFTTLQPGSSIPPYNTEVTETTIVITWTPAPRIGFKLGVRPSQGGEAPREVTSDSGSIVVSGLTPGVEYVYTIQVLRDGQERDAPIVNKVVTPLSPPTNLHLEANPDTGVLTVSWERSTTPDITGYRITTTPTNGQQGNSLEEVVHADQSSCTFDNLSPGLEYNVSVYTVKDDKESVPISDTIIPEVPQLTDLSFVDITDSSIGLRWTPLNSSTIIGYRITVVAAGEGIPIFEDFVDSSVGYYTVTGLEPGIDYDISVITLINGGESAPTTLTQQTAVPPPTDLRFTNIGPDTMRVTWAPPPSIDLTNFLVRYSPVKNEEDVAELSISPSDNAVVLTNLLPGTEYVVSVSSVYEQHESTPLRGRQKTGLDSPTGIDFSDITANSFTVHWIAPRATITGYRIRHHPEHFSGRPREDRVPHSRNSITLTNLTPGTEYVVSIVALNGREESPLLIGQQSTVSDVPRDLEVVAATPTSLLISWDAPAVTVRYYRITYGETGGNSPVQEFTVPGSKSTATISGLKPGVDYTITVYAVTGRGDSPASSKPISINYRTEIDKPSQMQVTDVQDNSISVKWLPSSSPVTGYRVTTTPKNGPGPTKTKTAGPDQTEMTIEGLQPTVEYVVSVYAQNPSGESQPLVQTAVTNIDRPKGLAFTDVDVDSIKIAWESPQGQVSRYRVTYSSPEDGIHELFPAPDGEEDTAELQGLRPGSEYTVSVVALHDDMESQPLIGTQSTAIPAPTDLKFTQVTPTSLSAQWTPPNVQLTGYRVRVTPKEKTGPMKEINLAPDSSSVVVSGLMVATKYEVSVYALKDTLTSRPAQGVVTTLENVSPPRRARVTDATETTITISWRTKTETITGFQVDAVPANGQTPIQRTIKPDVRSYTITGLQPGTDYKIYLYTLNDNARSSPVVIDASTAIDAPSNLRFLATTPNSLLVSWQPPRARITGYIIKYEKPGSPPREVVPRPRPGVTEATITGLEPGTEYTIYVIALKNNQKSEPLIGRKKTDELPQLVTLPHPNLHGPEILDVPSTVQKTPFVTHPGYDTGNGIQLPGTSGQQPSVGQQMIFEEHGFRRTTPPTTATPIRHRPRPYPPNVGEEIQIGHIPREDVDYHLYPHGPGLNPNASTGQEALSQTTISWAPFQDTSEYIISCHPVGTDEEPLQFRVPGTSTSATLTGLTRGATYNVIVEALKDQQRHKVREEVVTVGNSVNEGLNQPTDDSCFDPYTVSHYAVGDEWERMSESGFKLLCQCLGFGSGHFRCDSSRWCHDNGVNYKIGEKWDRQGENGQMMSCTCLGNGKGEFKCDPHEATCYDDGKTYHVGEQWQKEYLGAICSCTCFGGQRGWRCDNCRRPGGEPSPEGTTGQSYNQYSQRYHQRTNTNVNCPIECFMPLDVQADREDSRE
human PDGF-BB, sequence (P01127 82-190 limits assumed): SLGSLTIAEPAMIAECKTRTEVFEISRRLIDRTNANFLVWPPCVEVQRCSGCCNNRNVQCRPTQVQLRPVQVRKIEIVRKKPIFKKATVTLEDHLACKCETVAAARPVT
human VEGF-A121-PlGF2123-144, sequence (P15692 other isoform, or with tags, fused parts or gaps): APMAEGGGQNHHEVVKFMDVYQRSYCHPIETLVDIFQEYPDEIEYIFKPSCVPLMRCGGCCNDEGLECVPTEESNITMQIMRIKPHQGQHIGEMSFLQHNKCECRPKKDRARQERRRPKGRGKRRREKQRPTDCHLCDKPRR
VEGF-A165, sequence (P15692 other isoform, or with tags, fused parts or gaps limits assumed): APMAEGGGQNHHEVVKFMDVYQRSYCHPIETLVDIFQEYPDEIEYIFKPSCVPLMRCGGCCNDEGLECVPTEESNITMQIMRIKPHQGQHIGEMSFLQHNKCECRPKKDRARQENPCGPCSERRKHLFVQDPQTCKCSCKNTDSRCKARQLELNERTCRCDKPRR
Osteopontin, sequence (P10451 17-314): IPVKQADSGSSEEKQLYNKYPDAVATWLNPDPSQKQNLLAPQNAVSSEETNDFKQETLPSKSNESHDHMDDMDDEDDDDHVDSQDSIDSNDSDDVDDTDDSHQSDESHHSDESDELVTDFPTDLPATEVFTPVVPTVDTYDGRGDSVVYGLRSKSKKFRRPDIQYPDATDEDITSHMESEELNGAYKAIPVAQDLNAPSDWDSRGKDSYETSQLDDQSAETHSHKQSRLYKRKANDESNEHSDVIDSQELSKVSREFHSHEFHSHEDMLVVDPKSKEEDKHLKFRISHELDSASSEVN

Row | Kd [1] [µM] | Kd [2] [µM] | Kd [3] [µM] | Kd [4] [µM] | Kd [5] [µM] | Substance
1 | 0.25 | 0.0116 | 0.0203 | 0.019 | 0.0105 | human PDGF-BB (from UniProt P01127 82-190) (ligand)
2 | 0.0058 | 0.0112 | 0.0264 | 0.018 | 0.0028 | human VEGF-A121-PlGF2123-144 (from UniProt P15692 207-395) (ligand)
3 | 0.301 | 0.0972 | 0.071 | 0.115 | 0.0709 | VEGF-A165 (from UniProt P15692 27-191) (ligand)
4 | 0.0045 | 0.0072 | 0.0131 | 0.0101 | 0.002 | PlGF2 (ligand)
